B1: FAM189A2 (parent)
chain: VAAALRYLQIFATRRSCIDESQIS

Variants of: B1
Assay: protein stability index of a GFP-peptide fusion (GPS, HEK-293T) (PSI 1-6); higher = more stable
Details: c terminus: a fixed tail appended
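Further: lentivirally expressed fusions sorted by FACS into six bins by GFP to DsRed ratio, PSI derived from sequencing read proportions per bin multiplied by bin number.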

Compared with VAAALRYLQIFATRMSCIDESQIS [R15M], VAAALRYLQIFATRPSCIDESQIS [R15P] is higher in protein stability index: 1.28 for the first, 1.52 for the second.

Compared with VAAALRYLQIFATRYSCIDESQIS [R15Y], VAAALRYLQIFATRLSCIDESQIS [R15L] is lower in protein stability index: 2.55 for the first, 1.35 for the second.

Going from VAAALRYLQIFATRDSCIDESQIS [R15D] to VAAALRYLQIFATRQSCIDESQIS [R15Q], the protein stability index falls from 1.88 to 1.67.

First: VAAALRYLQIFATRVSCIDESQIS [R15V]
Second: VAAALRYLQIFATRASCIDESQIS [R15A]
The protein stability index of the first is higher: 2.81 for the first, 2.44 for the second.

Going from VAAALRYLQIFATRISCIDESQIS [R15I] to VAAALRYLQIFATRNSCIDESQIS [R15N], the protein stability index falls from 1.77 to 1.59.

Compared with VAAALRYLQIFATRKSCIDESQIS [R15K], VAAALRYLQIFATRTSCIDESQIS [R15T] is higher in protein stability index: 2.62 for the first, 2.69 for the second.

First: VAAALRYLQIFATRSSCIDESQIS [R15S]
Second: VAAALRYLQIFATRCSCIDESQIS [R15C]
The protein stability index of the first is lower: 1.99 for the first, 2.03 for the second.

Compared with VAAALRYLQIFATRESCIDESQIS [R15E], VAAALRYLQIFATRFSCIDESQIS [R15F] is higher in protein stability index: 2.13 for the first, 2.52 for the second.

Going from VAAALRYLQIFATRHSCIDESQIS [R15H] to VAAALRYLQIFATRRSCTDESQIS [I18T], the protein stability index falls from 1.94 to 1.75.

Compared with VAAALRYLQIFATRRSCDDESQIS [I18D], VAAALRYLQIFATRRSCADESQIS [I18A] is higher in protein stability index: 2.02 for the first, 2.58 for the second.

First: VAAALRYLQIFATRRSCKDESQIS [I18K]
Second: VAAALRYLQIFATRRSCCDESQIS [I18C]
The protein stability index of the first is higher: 2.7 for the first, 2.3 for the second.

Compared with VAAALRYLQIFATRRSCVDESQIS [I18V], VAAALRYLQIFATRRSCSDESQIS [I18S] is higher in protein stability index: 1.89 for the first, 2.14 for the second.

Going from VAAALRYLQIFATRRSCEDESQIS [I18E] to VAAALRYLQIFATRRSCNDESQIS [I18N], the protein stability index falls from 3.15 to 2.27.

Going from VAAALRYLQIFATRRSCYDESQIS [I18Y] to VAAALRYLQIFATRRSCWDESQIS [I18W], the protein stability index rises from 2.54 to 4.01.

First: VAAALRYLQIFATRRSCHDESQIS [I18H]
Second: VAAALRYLQIFATRRSCLDESQIS [I18L]
The protein stability index of the first is lower: 1.52 for the first, 2.57 for the second.

Going from VAAALRYLQIFATRRSCQDESQIS [I18Q] to VAAALRYLQIFATRRSCFDESQIS [I18F], the protein stability index rises from 1.95 to 4.04.

Compared with VAAALRYLQIFATRRSCGDESQIS [I18G], VAAALRYLQIFATRRSCPDESQIS [I18P] is lower in protein stability index: 2.2 for the first, 2.1 for the second.

Going from VAAALRYLQIFATPRSCIDESQIS [R14P] to VAAALRYLQIFATFRSCIDESQIS [R14F], the protein stability index falls from 2.78 to 2.54.

Compared with VAAALRYLQIFATLRSCIDESQIS [R14L], VAAALRYLQIFATGRSCIDESQIS [R14G] is lower in protein stability index: 2.5 for the first, 1.88 for the second.

Going from VAAALRYLQIFATYRSCIDESQIS [R14Y] to VAAALRYLQIFATSRSCIDESQIS [R14S], the protein stability index falls from 3.44 to 2.38.

First: VAAALRYLQIFATNRSCIDESQIS [R14N]
Second: VAAALRYLQIFATHRSCIDESQIS [R14H]
The protein stability index of the first is lower: 1.5 for the first, 3.33 for the second.

Going from VAAALRYLQIFATKRSCIDESQIS [R14K] to VAAALRYLQIFATERSCIDESQIS [R14E], the protein stability index falls from 1.79 to 1.12.

Going from VAAALRYLQIFATTRSCIDESQIS [R14T] to VAAALRYLQIFATCRSCIDESQIS [R14C], the protein stability index rises from 2.5 to 3.16.

Going from VAAALRYLQIFATMRSCIDESQIS [R14M] to VAAALRYLQIFATDRSCIDESQIS [R14D], the protein stability index rises from 1.56 to 2.37.

Compared with VAAALRYLQIFATQRSCIDESQIS [R14Q], VAAALRYLQIFATARSCIDESQIS [R14A] is lower in protein stability index: 1.91 for the first, 1.61 for the second.

Going from VAAALRYLQIFATIRSCIDESQIS [R14I] to VAAALRYLQIFATRRSCIDEMQIS [S21M], the protein stability index falls from 3.84 to 3.11.

Compared with VAAALRYLQIFATRRSCIDETQIS [S21T], VAAALRYLQIFATRRSCIDEYQIS [S21Y] is higher in protein stability index: 2.03 for the first, 4.49 for the second.

Going from VAAALRYLQIFATRRSCIDERQIS [S21R] to VAAALRYLQIFATRRSCIDECQIS [S21C], the protein stability index falls from 2.78 to 1.98.

Compared with VAAALRYLQIFATRRSCIDELQIS [S21L], VAAALRYLQIFATRRSCIDEPQIS [S21P] is lower in protein stability index: 2.45 for the first, 1.97 for the second.

First: VAAALRYLQIFATRRSCIDEIQIS [S21I]
Second: VAAALRYLQIFATRRSCIDEWQIS [S21W]
The protein stability index of the first is higher: 4.41 for the first, 2.67 for the second.

First: VAAALRYLQIFATRRSCIDEEQIS [S21E]
Second: VAAALRYLQIFATRRSCIDENQIS [S21N]
The protein stability index of the first is higher: 2.91 for the first, 1.73 for the second.

Compared with VAAALRYLQIFATRRSCIDEQQIS [S21Q], VAAALRYLQIFATRRSCIDEKQIS [S21K] is lower in protein stability index: 2.85 for the first, 2.61 for the second.

First: VAAALRYLQIFATRRSCIDEGQIS [S21G]
Second: VAAALRYLQIFATRRSCIDEDQIS [S21D]
The protein stability index of the first is lower: 1.83 for the first, 2.28 for the second.

Going from VAAALRYLQIFATRRSCIDEHQIS [S21H] to VAAALRYLQIFATRRSCIDESDIS [Q22D], the protein stability index falls from 2.45 to 2.32.

First: VAAALRYLQIFATRRSCIDESEIS [Q22E]
Second: VAAALRYLQIFATRRSCIDESSIS [Q22S]
The protein stability index of the first is lower: 2.15 for the first, 2.22 for the second.

Going from VAAALRYLQIFATRRSCIDESKIS [Q22K] to VAAALRYLQIFATRRSCIDESFIS [Q22F], the protein stability index falls from 2.53 to 2.04.

Compared with VAAALRYLQIFATRRSCIDESGIS [Q22G], VAAALRYLQIFATRRSCIDESTIS [Q22T] is lower in protein stability index: 3 for the first, 1.07 for the second.

First: VAAALRYLQIFATRRSCIDESVIS [Q22V]
Second: VAAALRYLQIFATRRSCIDESYIS [Q22Y]
The protein stability index of the first is higher: 2.87 for the first, 1.16 for the second.

First: VAAALRYLQIFATRRSCIDESHIS [Q22H]
Second: VAAALRYLQIFATRRSCIDESNIS [Q22N]
The protein stability index of the first is higher: 2.61 for the first, 1.77 for the second.

Going from VAAALRYLQIFATRRSCIDESWIS [Q22W] to VAAALRYLQIFATRRSCIDESPIS [Q22P], the protein stability index falls from 3.61 to 2.26.

First: VAAALRYLQIFATRRSCIDESCIS [Q22C]
Second: VAAALRYLQIFATRRSEIDESQIS [C17E]
The protein stability index of the first is higher: 4.63 for the first, 1.71 for the second.

Going from VAAALRYLQIFATRRSQIDESQIS [C17Q] to VAAALRYLQIFATRRSAIDESQIS [C17A], the protein stability index falls from 2.5 to 1.72.

First: VAAALRYLQIFATRRSKIDESQIS [C17K]
Second: VAAALRYLQIFATRRSTIDESQIS [C17T]
The protein stability index of the first is lower: 1.89 for the first, 2.17 for the second.

Going from VAAALRYLQIFATRRSVIDESQIS [C17V] to VAAALRYLQIFATRRSLIDESQIS [C17L], the protein stability index rises from 1.27 to 1.58.

Compared with VAAALRYLQIFATRRSMIDESQIS [C17M], VAAALRYLQIFATRRSRIDESQIS [C17R] is lower in protein stability index: 2.58 for the first, 1.23 for the second.

Compared with VAAALRYLQIFATRRSYIDESQIS [C17Y], VAAALRYLQIFATRRSGIDESQIS [C17G] is lower in protein stability index: 3.8 for the first, 3.03 for the second.

Compared with VAAALRYLQIFATRRSSIDESQIS [C17S], VAAALRYLQIFATRRSHIDESQIS [C17H] is lower in protein stability index: 1.74 for the first, 1.27 for the second.
